Reference: PMC9204165, “Delineating the Role of the msaABCR Operon in Staphylococcal Overflow Metabolism”

Assays:
[1] = biological target: T1, MsaB-His (MsaBhis) (Staphylococcus aureus USA300 LAC) (UniProt Q2FH36); assay: EMSA
T1 sequence: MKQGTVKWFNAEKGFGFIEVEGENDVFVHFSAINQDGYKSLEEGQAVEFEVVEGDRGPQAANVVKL

[2] = biological target: T1, MsaB-His (MsaBhis) (Staphylococcus aureus USA300 LAC); assay: competition
[3] = biological target: T2, MsaB-His (MsaBhis) (Staphylococcus aureus USA300 LAC, UniProt Q2FH36 1-66); assay: EMSA; 5 mM MgCl2, poly(dI-dC); conditions: protein: recombinant; tags: C-terminal 6xHis; label: 5'-biotin
T2 sequence: T1 sequence

Molecule: TCCACTAACATCATCCTAACTATTTCAACACGTTTATTTCATTATACACAACTTCTTAAACATTCAATAAATTTAGATTTATAAAATTGCTTTATAAAAAGTTTTATGTAAAATACACATTCTTTTATGGTATTATATTAATGGCTCAAGT (double strand) [PcidR promoter probe]
- binding [1]: binds

Molecule: TCCACTAACATCATCCTAACTATTTCAACACGTTTATTTCATTATACACAACTTCTTAAACATTCAATAAATTTAGATTTATAAAATTGCTTTATAAAAAGTTTTATGTAAAATACACATTCTTTTATGGTATTATATTAATGGCTCAAGT (double strand) [PcidR promoter unlabeled competitor]
- binding [2]: binds

B1: PcidABC-EMSA (dsDNA)
DNA 1: AGTGAAATTTAGAGAGCGTTTCCATAGAAAATAGTAATACAAACCATAAAAAAAGAGTAT
DNA 2: ATACTCTTTTTTTATGGTTTGTATTACTATTTTCTATGGAAACGCTCTCTAAATTTCACT
- binding result [3]: no binding

B2: PalsSD-EMSA (dsDNA)
DNA 1: B1 DNA 2
DNA 2: B1 DNA 1
- binding result [3]: no binding
